B1: secreted HCMV UL21.5 protein (UL21.5 activity in concentrated supernatant of wild-type HCMV-infected human fibroblasts) (other)
chain: APSQKSKRSVTVEQPSTSADGSNTTPSKNVTLSQGGSTTDGDEDYSGEYDVLITDGDGSEHQQPQKTDEHKENQAKENEKKIQ
modifications: highly glycosylated (sites not given)
notes: Not purified: tested as 300-fold concentrated serum-free culture medium of fibroblasts infected with wild-type AD169 virus; Secreted forms of 45 kDa and 25 kDa are cited; also called Wt supernatant; HCMV-infected cell supernatant

Legend:
interferon-γ = molecular target: T1, interferon-γ (UniProt P01579 24-166); assay: competition of unlabeled cytokine with 125I-RANTES for cross-linking to UL21.5
T1 construct: also called IFN-γ
T1 sequence: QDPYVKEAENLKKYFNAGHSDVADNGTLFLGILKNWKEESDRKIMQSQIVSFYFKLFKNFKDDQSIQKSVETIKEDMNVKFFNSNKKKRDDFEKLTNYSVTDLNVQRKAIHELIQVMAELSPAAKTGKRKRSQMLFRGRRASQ

[1] = molecular target: B1; assay: EDC cross-linking of 125I-chemokine to infected cell supernatant, SDS-PAGE autoradiogram
[2] = molecular target: B1; assay: summary in the description of the Scatchard analysis of Example 4 (rounded value)
[3] = molecular target: B1; assay: Scatchard analysis, 125I-RANTES (25-500 pM) with infected cell supernatant, PEG precipitation and filtration

B1
binding result (interferon-γ): no binding

B2: MIP-1α (ligand)
chain: SLAADTPTACCFSYTSRQIPQNFIADYFETSSQCSKPGVIFLTKRSRQVCADPSEEWVQKYVSDLELSA
modifications: also: 125I-labeled in tracer form, position not given here
notes: also called MIP-1 alpha; 125I-labeled MIP-1α
binding result [1]: no binding (tested: 0.4 nM 125I-labeled chemokine)

B3: RANTES (regulated upon activation, normal T cell expressed and secreted) (ligand)
chain: SPYSSDTTPCCFAYIARPLPRAHIKEYFYTSGKCSNPAVVFVTRKNRQVCANPEKKWVREYINSLEMS
modifications: also: 125I-labeled in tracer form, position not given here
notes: also called 125I-labeled RANTES; 125I-RANTES
Kd [2]: 0.15 nM
Kd [3]: 0.147 nM

— US20040241163A1 (published 2004)
